Reference: the nanobody polyreactivity screen of Harvey et al. (2022)

Assay: yeast display, Sf9 membrane polyspecificity reagent, FACS + sequencing; frameworks hold sequencing errors
Procedure, shortened: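 Sorting gates, low and high (top ~1%), were placed on anti-HA fluorescence to track expression and on streptavidin fluorescence to track reagent binding. A clone's polyreactivity label is taken from the gate it came out of. The reagent was 10% biotinylated, detergent-solubilized Sf9 membrane, applied for 1 hour at 4 °C to galactose-induced yeast display cells.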

| Sequence | polyreactivity (PSR sort gate) |
| --- | --- |
| QVQLVESGGGLVQAGGSLRLSCAASGSIFGGYAMGWYRPAPGKERELVAAISKTGGTTYYADSVKGRFTISRDNAKNTVYLQMKSLKPEDTAVYYCNAPKRYSGSAYGYGYWGQGTQVTVSS | high polyreactivity |
| QVQLVESGGGLVQAGGSLRLSCAASGSIFGGYAMGWYRQAPCQDRELVAAISTRGGSTYYADSVKGRFTISRDNAKNTVYLQMNSQKPEDTAVYYCAADYLDSSYGYVYGWDDYWGQGTQVNVSS | low polyreactivity |
| QVQLVESGGGLVQAGGSLRLSCAASGSIFGGYAMGWYRQAPGKEREFVAAISRRGASTYYADSVKGRFTISRDNAKNTVYLQMNSLKPEDTAVYYCNARAYGRIDGHSATYGYWGQGTQVTVSS | high polyreactivity |
| QVQLVESGGGLVQAGGSLRLSCAASGSIFGGYAMGWYRQAPGKERELVAAISFSGGSTYYADSVKGRFTISRDNAKNTVYSQMNSLKPEDTAVYYCAADPYYSYLFDYWGQGTQVTVSS | low polyreactivity |
| QVQLVESGGGLVQAGGSLRLSCAASGSIFGGYAMGWYRQAPGKERELVAAISRSGGRTYYADSVKGRFTISRDNAKNTVYLQMNSLKPEDTAVYYCNRVTGYDSGDGYWGQGTQVTVSS | high polyreactivity |
| QVQLVESGGGLVQAGGSLRLSCAASGSIFGGYAMGWYRQAPGKERELVAAISSGGSTYYADSVKGRFTISRDNAKNTVYLQMKSLKPEDTAVYYCATSTYAYRRNSYYYTRPRFGYWGQGTQVTVSS | high polyreactivity |
| QVQLVESGGGLVQAGGSLRLSCAASGSIFGGYAMGWYRQAPGKERELVAAISSSGVRTYYADSVKGRFTISRDNAKNTVYLQMNSLKPEDTAVYYCAADRSRSIIPFDYWGQGTQVTVSS | low polyreactivity |
| QVQLVESGGGLVQAGGSLRLSCAASGSIFGGYAMGWYRQAPGKERELVADISGSGGGTYYADSVKGRFTISRDNAKNTVYLQMNSLKPEDTAVYYCARRPRTYKHWFGYWGQGTQVTVSS | low polyreactivity |
| QVQLVESGGGLVQAGGSLRLSCAASGSIFGGYAMGWYRQAPGKERELVAGITYSGDSTYYADSVKGRFTISRDNAKNTVYLQMNSLKPEDTAVYYCNADQRVDHDDFDYWGQGTQVTVSS | low polyreactivity |
| QVQLVESGGGLVQAGGSLRLSCAASGSIFGGYAMGWYRQAPVKERELVARIRVSGGRTYYSDSVKGRFTISRDNAKNTVYLQRNSLKPEDTAVYYCNALLAGRRVARGYDSWGQGTQVTVSS | high polyreactivity |
| QVQLVESGGGLVQAGGSLRLSCAASGSIFGGYTMGWYRQAPGKERELVAAISRRGGNTYYADSVKGRFTISRDNAKNTVYLQMNSLKPEDTAVYYCAVRWPSARIPVKLDYWGQGTQVTVSS | high polyreactivity |
| QVQLVESGGGLVQAGGSLRLSCAASGSIFGIYAMGWYRQAPGKERELVAAISKSGGGTYYADSVKGRFTISRDNAKNTVYLQMNSLKPEDTAVYYCNADYWQWYSYWYDYWGQGTQVTVSS | high polyreactivity |
| QVQLVESGGGLVQAGGSLRLSCAASGSIFGIYTMGWYRQAPGKERELVAAIRRSGSTNYADSVKGRFTISRDNAKNTVYLQMNSLKPEDTAVYYCAADALSDEYDYWGQGTQVTVSS | low polyreactivity |
| QVQLVESGGGLVQAGGSLRLSCAASGSIFGKNAMGWYRQAPGKERELVAAITRRGGSTYYADSVKGRFTISRDNAKNTVYLQMNSLKPEDTAVYYCNALLTGGYQDSYPDDYWGQGTQVTVSS | high polyreactivity |
| QVQLVESGGGLVQAGGSLRLSCAASGSIFGLNAMGWYRQAPGKERELVAASSVSGTRTYYADSVKGRFTISRDNAKNTGYVQMNSLKPEDTAVYYCATRRYIFYSPYRYGYWGQGTHVTVSS | high polyreactivity |
| QVQLVESGGGLVQAGGSLRLSCAASGSIFGLYAMGWYRQAPGKEREFVASITYSGGSTYYADSVKGRFTISRDNAKNTVYLQMTSLKPEDTAVYYCAAESYWGYDYWGQGTQVTVSS | high polyreactivity |
| QVQLVESGGGLVQAGGSLRLSCAASGSIFGLYAMGWYRQAPGKERELVAAINQSGGSTSYADSVKGRFTISRDNAKNTVYLQMNSLKPEDTAVYYCNRVRLNSEGFDYWGQGTQVTVSS | low polyreactivity |
| QVQLVESGGGLVQAGGSLRLSCAASGSIFGLYAMGWYRQAPGKERELVAAINWNGGDTYYADSVKGRFTISRDYAKNTVYLQMNSLIAVDNAVYYCAAYPRDPYKEYDYLGQGTQVTVSS | low polyreactivity |
| QVQLVESGGGLVQAGGSLRLSCAASGSIFGLYAMGWYRQAPGKERELVATITSGTNTYYADSVKGRFTISRDNAKNTVYLQMNSLKAEDTAVYYCAKSYIAWDGRTFEEMNYWGQGTLVTVSS | low polyreactivity |
| QVQLVESGGGLVQAGGSLRLSCAASGSIFGLYAMGWYRQAPGKERELVAVITYSVGTTYYADSVKGRFTISRDNAKNTVYLQMNSLKPEDTAVYYCAADLYWYYPWSAYYGEYDYWGQGTQVTVSS | low polyreactivity |

| Sequence | polyreactivity (PSR sort gate) |
| --- | --- |
| QVQLVESGGGLVQAGGSLRLSCAASGSIFGLYAMGWYRQAPGKEREVFADITIGGSTYYADSVKGRFTISRDNAKNTVYLQMNSLKPEDTAVYYCASRPGSWYPSVPSYNYWGQGTQVTVSS | low polyreactivity |
| QVQLVESGGGLVQAGGSLRLSCAASGSIFGNNAMGWYRQAPGKERELVAAITSGGSTTYADSVKGRFTISRDNAKNTVYLLMNSLKPEDTAVYYCAATPVWGFVWEYNYWGQGTQVTVSS | low polyreactivity |
| QVQLVESGGGLVQAGGSLRLSCAASGSIFGNNVMGWYRQAPGKERELVAAITSGTSTYYADSVKGRFTISRDNAKNTVYLQMNSLKPEDTAVYYCAALWSSRYVVHPQWYDYWGQGTQVTVSS | low polyreactivity |
| QVQLVESGGGLVQAGGSLRLSCAASGSIFGNYVMGWYRPAPGKERELVAAISWSGGTNYADSVKGRFTISRDNAKNTVYLQMNSLKPEDTAVYYCAALSVWSYYTYYYWGQGTQVTVSS | high polyreactivity |
| QVQLVESGGGLVQAGGSLRLSCAASGSIFGPNAMGWYRQAPGKERELGAAISWRGGSTYYADSVKGRFTISRDTAKNTVYLQMNSLKPEDTAVYYCNKYLTWAEGLPGYDYWGQGTQVTVSS | high polyreactivity |
| QVQLVESGGGLVQAGGSLRLSCAASGSIFGPYVKGWYRQAPGTERELVASITSSGGSTYYADTVKGRFTISRDNAKNTVYIQMNSLKPEDTAVYYCNAVRFTPTNSHRYYWGQGTQVTVSS | high polyreactivity |
| QVQLVESGGGLVQAGGSLRLSCAASGSIFGRNAMGWYRQAPGKERELVAAIRTRGGSTYYADSVKGRFTNSRDIAKNSVYLQMNSLKPEDTAVYYCAAPGGGKEVDYWGQGTQVTVSS | low polyreactivity |
| QVQLVESGGGLVQAGGSLRLSCAASGSIFGRNAMGWYRQAPGKERELVAAITWSGDSTYYADSVKGRFTISRDNAKNSVYLQMNSLKPEVTAVYYCAVKSYVPYLSYIYSFGYWGQGTQVTVSS | low polyreactivity |
| QVQLVESGGGLVQAGGSLRLSCAASGSIFGRNAMGWYRQAPGKERELVADIWNGGSTYYADAVKGRFTISRDNAKNTVYLQMNSLKPEDTAVYYCNADADDVGRFGGYIKYDYWGQGTQVTVSS | low polyreactivity |
| QVQLVESGGGLVQAGGSLRLSCAASGSIFGRNDMGWYRQAAGKERELVAAISKRGGRTYYADSVKGRFTISRDNAKNTVYLQMNSLKPEDTAVYYCAADQPTLAYPGGYSAGMDYWGQGTQVTVSS | high polyreactivity |
| QVQLVESGGGLVQAGGSLRLSCAASGSIFGRNDMGWYRQAPGKERELVAAISGDTTTNYADSVKGRFTISRDNAKNTVYLQMNSLKPEDTAVYYCAAKYGYRRGTVRGYTRVYYWGQGTQVTVSS | high polyreactivity |
| QVQLVESGGGLVQAGGSLRLSCAASGSIFGRNVMGWYRQAPGKERELVAAISEGGGRTYYADSVKGRFTISRDNAKNTVYLQMNSLKPEDTAVYYCAAAYFSSGYKYYYWGQGTQVTVSS | high polyreactivity |
| QVQLVESGGGLVQAGGSLRLSCAASGSIFGRYAMGWYRQAPGKERELVAAISANGGSTYYADSVKGRFTISRDNAKNTVYLQMNSLKPEDTAVYYCAAGSTRGYKLGYWGQGTQVTVSS | high polyreactivity |
| QVQLVESGGGLVQAGGSLRLSCAASGSIFGSNAMGWYRQALGKERELVAAISDSTGSTYYADSVKGRFTISRDNAKNTVYLQMNSLKPEDTAVYYCDARTYYYRWHIYDYWGQGSQVTVSS | low polyreactivity |
| QVQLVESGGGLVQAGGSLRLSCAASGSIFGSNGMGWSRQAPGKERELVAAISSGDSTNYADSVKGRFTISRDNAKNTVYLQMNSLKPEDTAVYSCERWGLGDYWGQGTQVTVSS | low polyreactivity |
| QVQLVESGGGLVQAGGSLRLSCAASGSIFGSYAMGWYRQAPGKERELVAAISYRGGRTYYADSVKGRFTISRDNAKNTVYLQMNSLKPEDTAVYYCNARARNSPPYDYWGQGTQVTVSS | high polyreactivity |
| QVQLVESGGGLVQAGGSLRLSCAASGSIFGSYAMGWYTQAPGKERELVAAITRAGSTNYADSVKGRFTISRDNAKNTVYLQINSLKPEDTAVFYCAVRPGFGRSLWYGYWGQGTQVTVSS | low polyreactivity |
| QVQLVESGGGLVQAGGSLRLSCAASGSIFGTNAMGWYRQAPGKERELLAAISLSTGSTYYADSVKGRITISRDYAKNTVYLQMNSLKPEDTAVYYCAVRHRYTRAYWGRDYWGQGTQVTVSS | low polyreactivity |
| QVQLVESGGGLVQAGGSLRLSCAASGSIFGTNAMGWYRQAPGKERELVAAIDGGSTTYYADSVKGRFTISRDNAKNTVYLQMNSLKPEDTAVYYCAADGTRYLNDEGYAGYEYWGQGTQVTVSS | low polyreactivity |
| QVQLVESGGGLVQAGGSLRLSCAASGSIFGTNAMGWYRQAPGKERELVAAISFSGGDTYYADSVKGRFTISRDNAKKTVYLQMNRLKPEDTAVYYCAAEVPDTDAYGYWGQGTQVTVSS | low polyreactivity |
